Biological target: GAL-4 binding domain vector alone (pPC97) (yeast, UniProt P04386)
Assay: yeast two-hybrid filter assay
Text: A cDNA encoding the first 230 amino acids of huntingtin containing 44 glutamine repeats was ligated to the GAL-4 binding domain in plasmid vector pPC97 for yeast two hybrid screening with a rat brain cDNA library.
A cDNA construct containing the first 230 amino acids with 44 or 23 glutamine repeats was in-frame fused with the GAL4 DNA binding domain of plasmid pPC97[27].

binding result: no binding
B1: rHAP1-BR (rat huntingtin Associated Protein1 Binding Region), GAL-4 activation domain construct (other)
chain: LLEEENDHLREEASHLDNLEDKEQMLILECVEQFSEASQQMAELSEVLVLRLEGYERQQKEITQLQAEITKLQQRCQSYGAQTEKLQQQLASEKGVHPESLRAGSHMQDYGSRPRERQEDGKSHRQRSSMPAGSVTHYGYSVPLDALPSFPETLAEELRTSLRKFITDP
